Assay results published in patent US20170101454A1 (Novo Nordisk, published 2017).
Starred links: 1 amine or outer side, 2 acyl side, 3 side chain; linkers in the order of their positions; H or OH if unused. Non-standard residues stand in square brackets, D forms with d. Groups on a side chain read outwards from the residue. No end group written: not given here. *: point of attachment. C18 diacid = O=C(O)CCCCCCCCCCCCCCCCC(=O)*; γGlu = O=C(O)[C@H](CCC(=O)[*:2])N[*:1]; AEEA = NCCOCCOCC(=O)O; Aib = CC(C)(N)C(=O)O

Assays:
human GLP-1 receptor [1] = target: T1, human GLP-1 receptor (human, UniProt P43220 24-463); test: displacement of [125I]-GLP-1-(7-36)NH2 from BHK membranes with human GLP-1R, SPA, no serum albumin
T1 construct: whole, on cells; reporter assay used whole cells

human glucagon receptor [2] = target: T2, human glucagon receptor (human, UniProt P47871 26-477); test: displacement of [125I]-glucagon from BHK membranes with human glucagon receptor, SPA, no serum albumin
T2 construct: whole, on cells; reporter assay used whole cells; also called hGCGR

human GLP-1 receptor [3] = target: T1, human GLP-1 receptor; test: cell-based or functional assay
human glucagon receptor [4] = target: T2, human glucagon receptor; test: cell-based or functional assay

T2 sequence (P47871 26-477): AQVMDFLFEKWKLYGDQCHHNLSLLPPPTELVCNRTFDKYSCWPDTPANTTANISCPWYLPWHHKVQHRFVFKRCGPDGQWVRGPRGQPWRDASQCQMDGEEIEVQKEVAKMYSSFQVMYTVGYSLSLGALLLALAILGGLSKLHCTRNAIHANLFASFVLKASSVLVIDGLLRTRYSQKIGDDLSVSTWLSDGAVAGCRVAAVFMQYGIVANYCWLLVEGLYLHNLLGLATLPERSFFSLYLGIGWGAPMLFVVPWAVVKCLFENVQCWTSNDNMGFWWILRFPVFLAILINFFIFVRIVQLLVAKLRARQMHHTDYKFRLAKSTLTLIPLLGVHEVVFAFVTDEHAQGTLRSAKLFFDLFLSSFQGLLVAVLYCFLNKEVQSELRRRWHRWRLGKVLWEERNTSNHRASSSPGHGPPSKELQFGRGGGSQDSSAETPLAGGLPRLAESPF

IC50 (human GLP-1 receptor [1])	IC50 (human glucagon receptor [2])	GLP-1R EC50 (pM) [Assay (I)(a)], CRE luciferase reporter, BHK cells (human GLP-1 receptor [3])	GlucagonR EC50 (pM), [Assay (I)(b)], CRE luciferase reporter, BHK cells (human glucagon receptor [4])	Binder
0.1 nM	42.4 nM	3 pM	748 pM	H[Aib]QGTFTSDVSKYLESRRAQDFVQWLIK([AEEA-AEEA-γGlu-γGlu-γGlu-C18 diacid])T-NH2 (N-terminus assumed; SMILES CC[C@H](C)[C@H](NC(=O)[C@H](CC(C)C)NC(=O)[C@H](Cc1c[nH]c2ccccc12)NC(=O)[C@H](CCC(N)=O)NC(=O)[C@@H](NC(=O)[C@H](Cc1ccccc1)NC(=O)[C@H](CC(=O)O)NC(=O)[C@H](CCC(N)=O)NC(=O)[C@H](C)NC(=O)[C@H](CCCNC(=N)N)NC(=O)[C@H](CCCNC(=N)N)NC(=O)[C@H](CO)NC(=O)[C@H](CCC(=O)O)NC(=O)[C@H](CC(C)C)NC(=O)[C@H](Cc1ccc(O)cc1)NC(=O)[C@H](CCCCN)NC(=O)[C@H](CO)NC(=O)[C@@H](NC(=O)[C@H](CC(=O)O)NC(=O)[C@H](CO)NC(=O)[C@@H](NC(=O)[C@H](Cc1ccccc1)NC(=O)[C@@H](NC(=O)CNC(=O)[C@H](CCC(N)=O)NC(=O)C(C)(C)NC(=O)[C@@H](N)Cc1c[nH]cn1)[C@@H](C)O)[C@@H](C)O)C(C)C)C(C)C)C(=O)N[C@@H](CCCCNC(=O)COCCOCCNC(=O)COCCOCCNC(=O)CC[C@H](NC(=O)CC[C@H](NC(=O)CC[C@H](NC(=O)CCCCCCCCCCCCCCCCC(=O)O)C(=O)O)C(=O)O)C(=O)O)C(=O)N[C@H](C(N)=O)[C@@H](C)O, also called Chem. 10; Chem 10)
0.3 nM	6 nM	2 pM	32 pM	H[Aib]QGTFTSDLSKYLDARRAQDFVQWLIK([AEEA-AEEA-γGlu-γGlu-γGlu-C18 diacid])T-NH2 (N-terminus assumed; SMILES CC[C@H](C)[C@H](NC(=O)[C@H](CC(C)C)NC(=O)[C@H](Cc1c[nH]c2ccccc12)NC(=O)[C@H](CCC(N)=O)NC(=O)[C@@H](NC(=O)[C@H](Cc1ccccc1)NC(=O)[C@H](CC(=O)O)NC(=O)[C@H](CCC(N)=O)NC(=O)[C@H](C)NC(=O)[C@H](CCCNC(=N)N)NC(=O)[C@H](CCCNC(=N)N)NC(=O)[C@H](C)NC(=O)[C@H](CC(=O)O)NC(=O)[C@H](CC(C)C)NC(=O)[C@H](Cc1ccc(O)cc1)NC(=O)[C@H](CCCCN)NC(=O)[C@H](CO)NC(=O)[C@H](CC(C)C)NC(=O)[C@H](CC(=O)O)NC(=O)[C@H](CO)NC(=O)[C@@H](NC(=O)[C@H](Cc1ccccc1)NC(=O)[C@@H](NC(=O)CNC(=O)[C@H](CCC(N)=O)NC(=O)C(C)(C)NC(=O)[C@@H](N)Cc1c[nH]cn1)[C@@H](C)O)[C@@H](C)O)C(C)C)C(=O)N[C@@H](CCCCNC(=O)COCCOCCNC(=O)COCCOCCNC(=O)CC[C@H](NC(=O)CC[C@H](NC(=O)CC[C@H](NC(=O)CCCCCCCCCCCCCCCCC(=O)O)C(=O)O)C(=O)O)C(=O)O)C(=O)N[C@H](C(N)=O)[C@@H](C)O, also called Chem. 7; Chem 7)
0.1 nM	31.6 nM	2 pM	245 pM	H[Aib]QGTFTSDLSKYLESRRARDFVQWLIK([AEEA-AEEA-γGlu-γGlu-γGlu-C18 diacid])T-NH2 (N-terminus assumed; SMILES CC[C@H](C)[C@H](NC(=O)[C@H](CC(C)C)NC(=O)[C@H](Cc1c[nH]c2ccccc12)NC(=O)[C@H](CCC(N)=O)NC(=O)[C@@H](NC(=O)[C@H](Cc1ccccc1)NC(=O)[C@H](CC(=O)O)NC(=O)[C@H](CCCNC(=N)N)NC(=O)[C@H](C)NC(=O)[C@H](CCCNC(=N)N)NC(=O)[C@H](CCCNC(=N)N)NC(=O)[C@H](CO)NC(=O)[C@H](CCC(=O)O)NC(=O)[C@H](CC(C)C)NC(=O)[C@H](Cc1ccc(O)cc1)NC(=O)[C@H](CCCCN)NC(=O)[C@H](CO)NC(=O)[C@H](CC(C)C)NC(=O)[C@H](CC(=O)O)NC(=O)[C@H](CO)NC(=O)[C@@H](NC(=O)[C@H](Cc1ccccc1)NC(=O)[C@@H](NC(=O)CNC(=O)[C@H](CCC(N)=O)NC(=O)C(C)(C)NC(=O)[C@@H](N)Cc1c[nH]cn1)[C@@H](C)O)[C@@H](C)O)C(C)C)C(=O)N[C@@H](CCCCNC(=O)COCCOCCNC(=O)COCCOCCNC(=O)CC[C@H](NC(=O)CC[C@H](NC(=O)CC[C@H](NC(=O)CCCCCCCCCCCCCCCCC(=O)O)C(=O)O)C(=O)O)C(=O)O)C(=O)N[C@H](C(N)=O)[C@@H](C)O, also called Chem. 3; Chem 3)
0.1 nM	27.6 nM	7 pM	517 pM	H[Aib]QGTFTSDLSKYLESRRAQDFVQWLIK([AEEA-AEEA-γGlu-γGlu-γGlu-C18 diacid])T-NH2 (N-terminus assumed; SMILES CC[C@H](C)[C@H](NC(=O)[C@H](CC(C)C)NC(=O)[C@H](Cc1c[nH]c2ccccc12)NC(=O)[C@H](CCC(N)=O)NC(=O)[C@@H](NC(=O)[C@H](Cc1ccccc1)NC(=O)[C@H](CC(=O)O)NC(=O)[C@H](CCC(N)=O)NC(=O)[C@H](C)NC(=O)[C@H](CCCNC(=N)N)NC(=O)[C@H](CCCNC(=N)N)NC(=O)[C@H](CO)NC(=O)[C@H](CCC(=O)O)NC(=O)[C@H](CC(C)C)NC(=O)[C@H](Cc1ccc(O)cc1)NC(=O)[C@H](CCCCN)NC(=O)[C@H](CO)NC(=O)[C@H](CC(C)C)NC(=O)[C@H](CC(=O)O)NC(=O)[C@H](CO)NC(=O)[C@@H](NC(=O)[C@H](Cc1ccccc1)NC(=O)[C@@H](NC(=O)CNC(=O)[C@H](CCC(N)=O)NC(=O)C(C)(C)NC(=O)[C@@H](N)Cc1c[nH]cn1)[C@@H](C)O)[C@@H](C)O)C(C)C)C(=O)N[C@@H](CCCCNC(=O)COCCOCCNC(=O)COCCOCCNC(=O)CC[C@H](NC(=O)CC[C@H](NC(=O)CC[C@H](NC(=O)CCCCCCCCCCCCCCCCC(=O)O)C(=O)O)C(=O)O)C(=O)O)C(=O)N[C@H](C(N)=O)[C@@H](C)O, also called Chem. 8; Chem 8)
0.1 nM	3.7 nM	5 pM	14 pM	H[Aib]QGTFTSDLSKYLDARRAREFVQWLIK([AEEA-AEEA-γGlu-γGlu-γGlu-C18 diacid])T-NH2 (N-terminus assumed; SMILES CC[C@H](C)[C@H](NC(=O)[C@H](CC(C)C)NC(=O)[C@H](Cc1c[nH]c2ccccc12)NC(=O)[C@H](CCC(N)=O)NC(=O)[C@@H](NC(=O)[C@H](Cc1ccccc1)NC(=O)[C@H](CCC(=O)O)NC(=O)[C@H](CCCNC(=N)N)NC(=O)[C@H](C)NC(=O)[C@H](CCCNC(=N)N)NC(=O)[C@H](CCCNC(=N)N)NC(=O)[C@H](C)NC(=O)[C@H](CC(=O)O)NC(=O)[C@H](CC(C)C)NC(=O)[C@H](Cc1ccc(O)cc1)NC(=O)[C@H](CCCCN)NC(=O)[C@H](CO)NC(=O)[C@H](CC(C)C)NC(=O)[C@H](CC(=O)O)NC(=O)[C@H](CO)NC(=O)[C@@H](NC(=O)[C@H](Cc1ccccc1)NC(=O)[C@@H](NC(=O)CNC(=O)[C@H](CCC(N)=O)NC(=O)C(C)(C)NC(=O)[C@@H](N)Cc1c[nH]cn1)[C@@H](C)O)[C@@H](C)O)C(C)C)C(=O)N[C@@H](CCCCNC(=O)COCCOCCNC(=O)COCCOCCNC(=O)CC[C@H](NC(=O)CC[C@H](NC(=O)CC[C@H](NC(=O)CCCCCCCCCCCCCCCCC(=O)O)C(=O)O)C(=O)O)C(=O)O)C(=O)N[C@H](C(N)=O)[C@@H](C)O, also called Chem. 6; Chem 6)
0.5 nM	17.3 nM	10 pM	44 pM	H[Aib]QGTFTSDLSKYLDLRRAQDFVQWLIK([AEEA-AEEA-γGlu-γGlu-γGlu-C18 diacid])T-NH2 (N-terminus assumed; SMILES CC[C@H](C)[C@H](NC(=O)[C@H](CC(C)C)NC(=O)[C@H](Cc1c[nH]c2ccccc12)NC(=O)[C@H](CCC(N)=O)NC(=O)[C@@H](NC(=O)[C@H](Cc1ccccc1)NC(=O)[C@H](CC(=O)O)NC(=O)[C@H](CCC(N)=O)NC(=O)[C@H](C)NC(=O)[C@H](CCCNC(=N)N)NC(=O)[C@H](CCCNC(=N)N)NC(=O)[C@H](CC(C)C)NC(=O)[C@H](CC(=O)O)NC(=O)[C@H](CC(C)C)NC(=O)[C@H](Cc1ccc(O)cc1)NC(=O)[C@H](CCCCN)NC(=O)[C@H](CO)NC(=O)[C@H](CC(C)C)NC(=O)[C@H](CC(=O)O)NC(=O)[C@H](CO)NC(=O)[C@@H](NC(=O)[C@H](Cc1ccccc1)NC(=O)[C@@H](NC(=O)CNC(=O)[C@H](CCC(N)=O)NC(=O)C(C)(C)NC(=O)[C@@H](N)Cc1c[nH]cn1)[C@@H](C)O)[C@@H](C)O)C(C)C)C(=O)N[C@@H](CCCCNC(=O)COCCOCCNC(=O)COCCOCCNC(=O)CC[C@H](NC(=O)CC[C@H](NC(=O)CC[C@H](NC(=O)CCCCCCCCCCCCCCCCC(=O)O)C(=O)O)C(=O)O)C(=O)O)C(=O)N[C@H](C(N)=O)[C@@H](C)O, also called Chem. 9; Chem 9)
